Two variants from IntAct's records for PubMed 15558030 can be followed below.

B1: Proto-oncogene vav (Homo sapiens), P15498 (parent)
chain: MELWRQCTHWLIQCRVLPPSHRVTWDGAQVCELAQALRDGVLLCQLLNNLLPHAINLREVNLRPQMSQFLCLKNIRTFLSTCCEKFGLKRSELFEAFDLFDVQDFGKVIYTLSALSWTPIAQNRGIMPFPTEEESVGDEDIYSGLSDQIDDTVEEDEDLYDCVENEEAEGDEIYEDLMRSEPVSMPPKMTEYDKRCCCLREIQQTEEKYTDTLGSIQQHFLKPLQRFLKPQDIEIIFINIEDLLRVHTHFLKEMKEALGTPGAANLYQVFIKYKERFLVYGRYCSQVESASKHLDRVAAAREDVQMKLEECSQRANNGRFTLRDLLMVPMQRVLKYHLLLQELVKHTQEAMEKENLRLALDAMRDLAQCVNEVKRDNETLRQITNFQLSIENLDQSLAHYGRPKIDGELKITSVERRSKMDRYAFLLDKALLICKRRGDSYDLKDFVNLHSFQVRDDSSGDRDNKKWSHMFLLIEDQGAQGYELFFKTRELKKKWMEQFEMAISNIYPENATANGHDFQMFSFEETTSCKACQMLLRGTFYQGYRCHRCRASAHKECLGRVPPCGRHGQDFPGTMKKDKLHRRAQDKKRNELGLPKMEVFQEYYGLPPPPGAIGPFLRLNPGDIVELTKAEAEQNWWEGRNTSTNEIGWFPCNRVKPYVHGPPQDLSVHLWYAGPMERAGAESILANRSDGTFLVRQRVKDAAEFAISIKYNVEVKHIKIMTAEGLYRITEKKAFRGLTELVEFYQQNSLKDCFKSLDTTLQFPFKEPEKRTISRPAVGSTKYFGTAKARYDFCARDRSELSLKEGDIIKILNKKGQQGWWRGEIYGRVGWFPANYVEEDYSEYC
partner: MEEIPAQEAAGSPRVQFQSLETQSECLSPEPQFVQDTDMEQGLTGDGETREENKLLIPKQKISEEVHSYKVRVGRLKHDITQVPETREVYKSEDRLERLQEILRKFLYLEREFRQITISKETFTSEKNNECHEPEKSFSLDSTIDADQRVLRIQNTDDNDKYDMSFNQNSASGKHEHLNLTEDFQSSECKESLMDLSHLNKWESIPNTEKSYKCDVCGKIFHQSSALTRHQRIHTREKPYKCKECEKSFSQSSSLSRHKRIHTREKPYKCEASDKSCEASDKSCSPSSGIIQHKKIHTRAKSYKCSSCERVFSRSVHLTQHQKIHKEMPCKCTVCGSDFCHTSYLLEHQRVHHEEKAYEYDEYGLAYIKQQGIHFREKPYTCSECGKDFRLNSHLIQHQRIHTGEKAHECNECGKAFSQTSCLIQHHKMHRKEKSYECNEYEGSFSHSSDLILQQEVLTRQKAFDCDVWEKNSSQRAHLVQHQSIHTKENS

In the test the parent is B1. The note with it: with zn655_human ZNF655, Q8N720.
Regarding Y836F, the “effect of a mutation on the interaction” value was “decreasing interaction”.
For P833L, the “effect of a mutation on the interaction” value is listed as “decreasing interaction”.
